# Laboratory results as given in US20170015742A1 (published 2017).
# Target: recombinant human PDGF-BB (human, UniProt P01127 82-190)
# Assay: cell-based or functional assay
# Chain of recombinant human PDGF-BB (P01127 82-190 limits assumed): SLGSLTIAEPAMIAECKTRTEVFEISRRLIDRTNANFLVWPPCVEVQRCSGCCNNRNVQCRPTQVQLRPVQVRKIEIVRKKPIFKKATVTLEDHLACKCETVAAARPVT
row,Binder,NIH-3T3 hPDGF-BB Potency IC50 [nM]
1,"CODV012 cross-over DVD-Ig (PR-1571824) (bispecific antibody, human IgG1, kappa, L234A L235A) heavy: EVQLVQSGSELKKPGASVKVSCKASGYTFTNYGMYWVRQAPGQGLEWMGWINTETGKPTYADDFKGRFVFSLDTSVSTAYLQISSLKAEDTAVYYCARTNYYYRSYIFYFDYWGQGTMVTVSSGGGGSGGGEFVLTQSPGTLSLSPGERATLSCERSSGDIGDSYVSWYQQKPGQAPRLVIYADDQRPSGIPDRFSGSGSGTDFTLTISRLEPEDFAVYYCQSYDINIDIVFGGGTKVEIKGGGSGASTKGPSVFPLAPSSKSTSGGTAALGCLVKDYFPEPVTVSWNSGALTSGVHTFPAVLQSSGLYSLSSVVTVPSSSLGTQTYICNVNHKPSNTKVDKKVEPKSCDKTHTCPPCPAPEAAGGPSVFLFPPKPKDTLMISRTPEVTCVVVDVSHEDPEVKFNWYVDGVEVHNAKTKPREEQYNSTYRVVSVLTVLHQDWLNGKEYKCKVSNKALPAPIEKTISKAKGQPREPQVYTLPPSREEMTKNQVSLTCLVKGFYPSDIAVEWESNGQPENNYKTTPPVLDSDGSFFLYSKLTVDKSRWQQGNVFSCSVMHEALHNAYTQKSLSLSPGK light: EVTLRESGPALVKPTQTLTLTCTFSGFSLSTYGMGVGWIRQPPGKALEWLANIWWDDDKYYNPSLKNRLTISKDTSKNQVVLTMTNMDPVDTATYYCARIESIGTTYSFDYWGQGTMVTVSSGGGGSGGGDTVLTQSPATLSLSPGERATLSCRASESVSTHMHWYQQKPGQAPRLLIYGASNLESGVPARFSGSGSGTDFTLTISSLEPEDFAVYFCQQSWNDPFTFGQGTKLEIKGGGSGRTVAAPSVFIFPPSDEQLKSGTASVVCLLNNFYPREAKVQWKVDNALQSGNSQESVTEQDSKDSTYSLSSTLTLSKADYEKHKVYACEVTHQGLSSPVTKSFNRGEC",0.182
2,"CODV011 cross-over DVD-Ig (PR-1575521) (bispecific antibody, human IgG1, kappa, L234A L235A) heavy: EVQLVQSGSELKKPGASVKVSCKASGYTFTNYGMYWVRQAPGQGLEWMGWINTETGKPTYADDFKGRFVFSLDTSVSTAYLQISSLKAEDTAVYYCARTNYYYRSYIFYFDYWGQGTMVTVSSGGGGSGGGGSEFVLTQSPGTLSLSPGERATLSCERSSGDIGDSYVSWYQQKPGQAPRLVIYADDQRPSGIPDRFSGSGSGTDFTLTISRLEPEDFAVYYCQSYDINIDIVFGGGTKVEIKGGGSGASTKGPSVFPLAPSSKSTSGGTAALGCLVKDYFPEPVTVSWNSGALTSGVHTFPAVLQSSGLYSLSSVVTVPSSSLGTQTYICNVNHKPSNTKVDKKVEPKSCDKTHTCPPCPAPEAAGGPSVFLFPPKPKDTLMISRTPEVTCVVVDVSHEDPEVKFNWYVDGVEVHNAKTKPREEQYNSTYRVVSVLTVLHQDWLNGKEYKCKVSNKALPAPIEKTISKAKGQPREPQVYTLPPSREEMTKNQVSLTCLVKGFYPSDIAVEWESNGQPENNYKTTPPVLDSDGSFFLYSKLTVDKSRWQQGNVFSCSVMHEALHNAYTQKSLSLSPGK light: EVTLRESGPALVKPTQTLTLTCTFSGFSLSTYGMGVGWIRQPPGKALEWLANIWWDDDKYYNPSLKNRLTISKDTSKNQVVLTMTNMDPVDTATYYCARIESIGTTYSFDYWGQGTMVTVSSGGGGSGGGGSDTVLTQSPATLSLSPGERATLSCRASESVSTHMHWYQQKPGQAPRLLIYGASNLESGVPARFSGSGSGTDFTLTISSLEPEDFAVYFCQQSWNDPFTFGQGTKLEIKGGGSGRTVAAPSVFIFPPSDEQLKSGTASVVCLLNNFYPREAKVQWKVDNALQSGNSQESVTEQDSKDSTYSLSSTLTLSKADYEKHKVYACEVTHQGLSSPVTKSFNRGEC",0.043
3,"CODV010 cross-over DVD-Ig (PR-1571823) (bispecific antibody, human IgG1, kappa, L234A L235A) heavy: EVTLRESGPALVKPTQTLTLTCTFSGFSLSTYGMGVGWIRQPPGKALEWLANIWWDDDKYYNPSLKNRLTISKDTSKNQVVLTMTNMDPVDTATYYCARIESIGTTYSFDYWGQGTMVTVSSGEVQLVQSGSELKKPGASVKVSCKASGYTFTNYGMYWVRQAPGQGLEWMGWINTETGKPTYADDFKGRFVFSLDTSVSTAYLQISSLKAEDTAVYYCARTNYYYRSYIFYFDYWGQGTMVTVSSGGASTKGPSVFPLAPSSKSTSGGTAALGCLVKDYFPEPVTVSWNSGALTSGVHTFPAVLQSSGLYSLSSVVTVPSSSLGTQTYICNVNHKPSNTKVDKKVEPKSCDKTHTCPPCPAPEAAGGPSVFLFPPKPKDTLMISRTPEVTCVVVDVSHEDPEVKFNWYVDGVEVHNAKTKPREEQYNSTYRVVSVLTVLHQDWLNGKEYKCKVSNKALPAPIEKTISKAKGQPREPQVYTLPPSREEMTKNQVSLTCLVKGFYPSDIAVEWESNGQPENNYKTTPPVLDSDGSFFLYSKLTVDKSRWQQGNVFSCSVMHEALHNAYTQKSLSLSPGK light: DTVLTQSPATLSLSPGERATLSCRASESVSTHMHWYQQKPGQAPRLLIYGASNLESGVPARFSGSGSGTDFTLTISSLEPEDFAVYFCQQSWNDPFTFGQGTKLEIKGGGSGGGEFVLTQSPGTLSLSPGERATLSCERSSGDIGDSYVSWYQQKPGQAPRLVIYADDQRPSGIPDRFSGSGSGTDFTLTISRLEPEDFAVYYCQSYDINIDIVFGGGTKVEIKGGGSGRTVAAPSVFIFPPSDEQLKSGTASVVCLLNNFYPREAKVQWKVDNALQSGNSQESVTEQDSKDSTYSLSSTLTLSKADYEKHKVYACEVTHQGLSSPVTKSFNRGEC",2.14

# More lines, now with the values ahead:
row,NIH-3T3 hPDGF-BB Potency IC50 [nM],Binder
1,0.056,"CODV021 cross-over DVD-Ig (PR-1577053) (bispecific antibody, human IgG1, kappa, L234A L235A) heavy: EVQLVQSGSELKKPGASVKVSCKASGYTFTNYGMYWVRQAPGQGLEWMGWINTETGKPTYADDFKGRFVFSLDTSVSTAYLQISSLKAEDTAVYYCARTNYYYRSYIFYFDYWGQGTMVTVSSGGGGSGGGEFVLTQSPGTLSLSPGERATLSCERSSGDIGESYVSWYQQKPGQAPRLVIYADDQRPSGIPDRFSGSGSGTDFTLTISRLEPEDFAVYYCQSYDINIDIVFGGGTKVEIKGGGSGASTKGPSVFPLAPSSKSTSGGTAALGCLVKDYFPEPVTVSWNSGALTSGVHTFPAVLQSSGLYSLSSVVTVPSSSLGTQTYICNVNHKPSNTKVDKKVEPKSCDKTHTCPPCPAPEAAGGPSVFLFPPKPKDTLMISRTPEVTCVVVDVSHEDPEVKFNWYVDGVEVHNAKTKPREEQYNSTYRVVSVLTVLHQDWLNGKEYKCKVSNKALPAPIEKTISKAKGQPREPQVYTLPPSREEMTKNQVSLTCLVKGFYPSDIAVEWESNGQPENNYKTTPPVLDSDGSFFLYSKLTVDKSRWQQGNVFSCSVMHEALHNAYTQKSLSLSPGK light: EVTLRESGPALVKPTQTLTLTCTFSGFSLSTYGMGVGWIRQPPGKALEWLANIWWDDDKYYNPSLKNRLTISKDTSKNQVVLTMTNMDPVDTATYYCARIESIGTTYSFDYWGQGTMVTVSSGGGGSGGGDTVLTQSPATLSLSPGERATLSCRASESVSTHMHWYQQKPGQAPRLLIYGASNLESGVPARFSGSGSGTDFTLTISSLEPEDFAVYFCQQSWNDPFTFGQGTKLEIKGGSRTVAAPSVFIFPPSDEQLKSGTASVVCLLNNFYPREAKVQWKVDNALQSGNSQESVTEQDSKDSTYSLSSTLTLSKADYEKHKVYACEVTHQGLSSPVTKSFNRGEC"
2,0.469,"CODV014 cross-over DVD-Ig (PR-1571826) (bispecific antibody, human IgG1, kappa, L234A L235A) heavy: EVQLVQSGSELKKPGASVKVSCKASGYTFTNYGMYWVRQAPGQGLEWMGWINTETGKPTYADDFKGRFVFSLDTSVSTAYLQISSLKAEDTAVYYCARTNYYYRSYIFYFDYWGQGTMVTVSSGGGGSEFVLTQSPGTLSLSPGERATLSCERSSGDIGDSYVSWYQQKPGQAPRLVIYADDQRPSGIPDRFSGSGSGTDFTLTISRLEPEDFAVYYCQSYDINIDIVFGGGTKVEIKGGSASTKGPSVFPLAPSSKSTSGGTAALGCLVKDYFPEPVTVSWNSGALTSGVHTFPAVLQSSGLYSLSSVVTVPSSSLGTQTYICNVNHKPSNTKVDKKVEPKSCDKTHTCPPCPAPEAAGGPSVFLFPPKPKDTLMISRTPEVTCVVVDVSHEDPEVKFNWYVDGVEVHNAKTKPREEQYNSTYRVVSVLTVLHQDWLNGKEYKCKVSNKALPAPIEKTISKAKGQPREPQVYTLPPSREEMTKNQVSLTCLVKGFYPSDIAVEWESNGQPENNYKTTPPVLDSDGSFFLYSKLTVDKSRWQQGNVFSCSVMHEALHNAYTQKSLSLSPGK light: EVTLRESGPALVKPTQTLTLTCTFSGFSLSTYGMGVGWIRQPPGKALEWLANIWWDDDKYYNPSLKNRLTISKDTSKNQVVLTMTNMDPVDTATYYCARIESIGTTYSFDYWGQGTMVTVSSGGGGSGGGDTVLTQSPATLSLSPGERATLSCRASESVSTHMHWYQQKPGQAPRLLIYGASNLESGVPARFSGSGSGTDFTLTISSLEPEDFAVYFCQQSWNDPFTFGQGTKLEIKGGGSGRTVAAPSVFIFPPSDEQLKSGTASVVCLLNNFYPREAKVQWKVDNALQSGNSQESVTEQDSKDSTYSLSSTLTLSKADYEKHKVYACEVTHQGLSSPVTKSFNRGEC"
3,0.11,"CODV013 cross-over DVD-Ig (PR-1571825) (bispecific antibody, human IgG1, kappa, L234A L235A) heavy: EVQLVQSGSELKKPGASVKVSCKASGYTFTNYGMYWVRQAPGQGLEWMGWINTETGKPTYADDFKGRFVFSLDTSVSTAYLQISSLKAEDTAVYYCARTNYYYRSYIFYFDYWGQGTMVTVSSGGGGSGGGEFVLTQSPGTLSLSPGERATLSCERSSGDIGDSYVSWYQQKPGQAPRLVIYADDQRPSGIPDRFSGSGSGTDFTLTISRLEPEDFAVYYCQSYDINIDIVFGGGTKVEIKGGSASTKGPSVFPLAPSSKSTSGGTAALGCLVKDYFPEPVTVSWNSGALTSGVHTFPAVLQSSGLYSLSSVVTVPSSSLGTQTYICNVNHKPSNTKVDKKVEPKSCDKTHTCPPCPAPEAAGGPSVFLFPPKPKDTLMISRTPEVTCVVVDVSHEDPEVKFNWYVDGVEVHNAKTKPREEQYNSTYRVVSVLTVLHQDWLNGKEYKCKVSNKALPAPIEKTISKAKGQPREPQVYTLPPSREEMTKNQVSLTCLVKGFYPSDIAVEWESNGQPENNYKTTPPVLDSDGSFFLYSKLTVDKSRWQQGNVFSCSVMHEALHNAYTQKSLSLSPGK light: EVTLRESGPALVKPTQTLTLTCTFSGFSLSTYGMGVGWIRQPPGKALEWLANIWWDDDKYYNPSLKNRLTISKDTSKNQVVLTMTNMDPVDTATYYCARIESIGTTYSFDYWGQGTMVTVSSGGGGSGGGDTVLTQSPATLSLSPGERATLSCRASESVSTHMHWYQQKPGQAPRLLIYGASNLESGVPARFSGSGSGTDFTLTISSLEPEDFAVYFCQQSWNDPFTFGQGTKLEIKGGGSGRTVAAPSVFIFPPSDEQLKSGTASVVCLLNNFYPREAKVQWKVDNALQSGNSQESVTEQDSKDSTYSLSSTLTLSKADYEKHKVYACEVTHQGLSSPVTKSFNRGEC"
